This series deals with Saccharomyces cerevisiae. In words: protein stability index of tFT-peptide fusion (C-terminal peptide) (PSI (0-1 scale)); higher = more stable (slower turnover). The following applies: temperature: 30 C. How it is done: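 MPS profiling in S. cerevisiae of the yeast C-terminome library: the last 12 aa of each annotated ORF are fused to the C-terminus of a sfGFP-mCherry timer, after a GGGS linker. Cells are FACS-sorted into 8 mCherry/sfGFP bins and deep-sequenced. PSI runs from 0 (unstable) to 1 (stable); wild type and das1Δ backgrounds, two technical replicates each.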

Where [1] appears, read: genetic background: das1 deletion.

Data on 67 sequences can be found in the supplement of paper PMC10724198.

± gives the standard deviation of the averaged measurements.

“RELREHTKLLHS [YIL082W-A C-terminal 12 aa]”: the protein stability index is 0.6879 ± 0.0029 under setting [1] and 0.597 ± 0.021 (genetic background: wild type).
REVDDRFKVIYV [VPS35 C-terminal 12 aa]: the protein stability index under setting [1] stood at 0.692 ± 0.018 and the protein stability index (genetic background: wild type) came to 0.695 ± 0.029.
The corresponding values for RFAKGGKFVEVD [ATP18 C-terminal 12 aa] are 0.6904 ± 0.001 and 0.6675 ± 0.0047.
The corresponding values for “RFYFLSIFKYII [YBR191W-A C-terminal 12 aa]” are 0.633 ± 0.023 and 0.331 ± 0.02.
The corresponding values for RGRIAAQKRISA [RPL17B C-terminal 12 aa] are 0.681 ± 0.014 and 0.663 ± 0.016.
As for RHAASLLGMSTK [VPS17 C-terminal 12 aa], the protein stability index under setting [1] amounted to 0.714 ± 0.0089 and the protein stability index (genetic background: wild type) is 0.762 ± 0.03.
The corresponding values for RHCARVKRSSRL [LYS1 C-terminal 12 aa] are 0.778 ± 0.024 and 0.823 ± 0.046.
Take RKEVIDALVSLS [AIM46 C-terminal 12 aa]: the protein stability index is 0.7011 ± 0.0026 under setting [1] and 0.6881 ± 0.0046 (genetic background: wild type).
The corresponding values for RKFFSMRSLNSR [CHL1 C-terminal 12 aa] are 0.696 ± 0.014 and 0.6589 ± 0.0015.
The corresponding values for RKLFLVVKDNIL [JIP3 C-terminal 12 aa] are 0.695 ± 0.016 and 0.734 ± 0.015.
For the sequence RKNNKKSISYYG [YOR203W C-terminal 12 aa], the protein stability index under setting [1] is 0.706 ± 0.011 and the protein stability index (genetic background: wild type) stood at 0.731 ± 0.0063.
Turning to RKRKQSKSGLLL [NOP8 C-terminal 12 aa], the protein stability index is 0.723 ± 0.024 under setting [1] and 0.699 ± 0.01 (genetic background: wild type).
The corresponding values for RKRLRTLDNWYR [RNH201 C-terminal 12 aa] are 0.7355 ± 0.0016 and 0.7169 ± 0.0049.
The corresponding values for RLDKATKALEGF [NBA1 C-terminal 12 aa] are 0.6942 ± 0.0018 and 0.702 ± 0.033.
The corresponding values for RLGNLENIKIPK [AIM4 C-terminal 12 aa] are 0.737 ± 0.0074 and 0.696 ± 0.038.
Take RLLSLWEVFQMA [RPC82 C-terminal 12 aa]: the protein stability index under setting [1] was 0.646 ± 0.027 and the protein stability index (genetic background: wild type) was found to be 0.6182 ± 0.0037.
The corresponding values for RLNNWLFGWNDL [NUP53 C-terminal 12 aa] are 0.785 ± 0.012 and 0.707 ± 0.0094.
The corresponding values for RLQAMLNSSSSI [CEF1 C-terminal 12 aa] are 0.681 ± 0.015 and 0.669 ± 0.008.
The corresponding values for RLRAKSPYAWDD [YHK8 C-terminal 12 aa] are 0.729 ± 0.0089 and 0.721 ± 0.053.
Take RLTSRSGSANRA [SAC7 C-terminal 12 aa]: the protein stability index was 0.706 ± 0.028 under setting [1] and 0.65006 ± 5.7e-05 (genetic background: wild type).
The corresponding values for RLVRNVELSKEK [MTD1 C-terminal 12 aa] are 0.708 ± 0.028 and 0.718 ± 0.062.
The corresponding values for RLWSRKEFRLGT [SNU71 C-terminal 12 aa] are 0.7 ± 0.017 and 0.7 ± 0.029.
The corresponding values for RMVDKVEGSFSR [YDR109C C-terminal 12 aa] are 0.7218 ± 0.0071 and 0.701 ± 0.028.
RPVLSEEQRKNC [YDR344C C-terminal 12 aa]: the protein stability index came to 0.668 ± 0.0083 under setting [1] and 0.6794 ± 0.0048 (genetic background: wild type).
Consider RQTKAFISKFMT [DBR1 C-terminal 12 aa], for which the protein stability index is 0.7208 ± 0.0027 under setting [1] and 0.682 ± 0.05 (genetic background: wild type).
Turning to RRKKKLMDELNL [ISY1 C-terminal 12 aa], the protein stability index by setting is: under setting [1], 0.703 ± 0.04; (genetic background: wild type) 0.669 ± 0.017.
The corresponding values for RRSFFSVFRSEK [AKL1 C-terminal 12 aa] are 0.68 ± 0.019 and 0.746 ± 0.049.
The corresponding values for RSHRKQPLKRKD [BRE5 C-terminal 12 aa] are 0.69 ± 0.025 and 0.645 ± 0.019.
The corresponding values for RTHAMLNDIQNI [BNR1 C-terminal 12 aa] are 0.72 ± 0.022 and 0.721 ± 0.091.
With RVKSLKVGRKSQ [PAL1 C-terminal 12 aa], the protein stability index reads like this: under setting [1], 0.688 ± 0.02; (genetic background: wild type) 0.684 ± 0.0082.
The corresponding values for RVLNNLIVSHNK [MOT3 C-terminal 12 aa] are 0.7102 ± 0.003 and 0.735 ± 0.078.
The corresponding values for RVSLEKEAKQHG [ERV2 C-terminal 12 aa] are 0.715 ± 0.025 and 0.673 ± 0.0072.
The corresponding values for RWFKKKKETGGS [BUD2 C-terminal 12 aa] are 0.698 ± 0.0098 and 0.71919 ± 0.00068.
Take RYRLEKVIGKRW [SPO20 C-terminal 12 aa]: the protein stability index is 0.704 ± 0.03 under setting [1] and 0.676 ± 0.022 (genetic background: wild type).
The corresponding values for SAIYLLIFRSTR [YPR177C C-terminal 12 aa] are 0.56459 ± 0.00029 and 0.569 ± 0.018.
The corresponding values for SAMTSKVLSFFL [RRT7 C-terminal 12 aa] are 0.7094 ± 0.0069 and 0.696 ± 0.019.
SCAKDILGEENF [BRE4 C-terminal 12 aa]: the protein stability index runs as follows: under setting [1], 0.687 ± 0.0079; (genetic background: wild type) 0.661 ± 0.04.
The corresponding values for SDAVAEANDIDD [TOM20 C-terminal 12 aa] are 0.673 ± 0.051 and 0.72 ± 0.047.
The corresponding values for SDEGHAHEDCAK [LOG1 C-terminal 12 aa] are 0.679 ± 0.011 and 0.669 ± 0.015.
The corresponding values for SFSRIDCCLPDE [TDA5 C-terminal 12 aa] are 0.72 ± 0.013 and 0.707 ± 0.051.
For SGDIVAVIETLA [DUR12 C-terminal 12 aa], the protein stability index runs as follows: under setting [1], 0.51 ± 0.033; (genetic background: wild type) 0.571 ± 0.049.
The corresponding values for SGFQFPFFGEEK [MRPL7 C-terminal 12 aa] are 0.717 ± 0.014 and 0.695 ± 0.037.
Turning to SGSRVVRKLFEL [FUS2 C-terminal 12 aa], the protein stability index is, setting by setting: under setting [1], 0.6964 ± 0.0031; (genetic background: wild type) 0.7 ± 0.016.
The corresponding values for “SGSVYIGSVFLI [YGR121W-A C-terminal 12 aa]” are 0.692 ± 0.029 and 0.6421 ± 0.0012.
Take “SGWSAKIPVSMI [YCR045W-A C-terminal 12 aa]”: the protein stability index stood at 0.704 ± 0.014 under setting [1] and 0.698 ± 0.0077 (genetic background: wild type).
The corresponding values for SGYDYFDVSVSG [YAT1 C-terminal 12 aa] are 0.71 ± 0.022 and 0.712 ± 0.015.
The corresponding values for SHKGFFQKLGCC [YCK1 C-terminal 12 aa] are 0.692 ± 0.0098 and 0.677 ± 0.01.
The corresponding values for SIDKWFFISGSV [IPP1 C-terminal 12 aa] are 0.726 ± 0.013 and 0.709 ± 0.0086.
For the sequence SIHIDDFENENN [YGL036W C-terminal 12 aa], the protein stability index is 0.7059 ± 0.0061 under setting [1] and 0.675 ± 0.023 (genetic background: wild type).
The corresponding values for SINGVNLELIKD [MIX14 C-terminal 12 aa] are 0.691 ± 0.041 and 0.635 ± 0.016.
The corresponding values for SKFTGRKRRHRF [BUD23 C-terminal 12 aa] are 0.67693 ± 0.00035 and 0.711 ± 0.05.
As to SLDKMAQQLGVE [YKR005C C-terminal 12 aa], the protein stability index reads like this: under setting [1], 0.698 ± 0.016; (genetic background: wild type) 0.677 ± 0.036.
The corresponding values for SLEAVSKMDKLA [AAT1 C-terminal 12 aa] are 0.723 ± 0.012 and 0.679 ± 0.014.
The corresponding values for SLQFIGEETSSL [YDL026W C-terminal 12 aa] are 0.708 ± 0.01 and 0.684 ± 0.012.
The corresponding values for SLSLRNHNSSQL [CLN1 C-terminal 12 aa] are 0.708 ± 0.024 and 0.701 ± 0.017.
Take SNKLKGNPNQVF [MTG1 C-terminal 12 aa]: the protein stability index turned out to be 0.721 ± 0.0079 under setting [1] and 0.75045 ± 0.00033 (genetic background: wild type).
The corresponding values for SNRILALGYILL [ATG32 C-terminal 12 aa] are 0.669 ± 0.0077 and 0.658 ± 0.0079.
The corresponding values for SNSLPKLKFHSM [OCA6 C-terminal 12 aa] are 0.725 ± 0.044 and 0.681 ± 0.011.
The corresponding values for SPKEEKRFKFKL [YGR127W C-terminal 12 aa] are 0.739 ± 0.046 and 0.801 ± 0.047.
Consider SPPEEESQHGDV [SHB17 C-terminal 12 aa], for which the protein stability index is, setting by setting: under setting [1], 0.696 ± 0.022; (genetic background: wild type) 0.75 ± 0.032.
Consider SQQNNNGNQNRY [RNQ1 C-terminal 12 aa], for which the protein stability index was 0.7168 ± 0.002 under setting [1] and 0.6682 ± 0.0039 (genetic background: wild type).
The corresponding values for SRSSIKNIVKPK [MRX15 C-terminal 12 aa] are 0.689 ± 0.048 and 0.75 ± 0.052.
The corresponding values for SSAASSQVPAST [PTK1 C-terminal 12 aa] are 0.694 ± 0.025 and 0.6743 ± 0.0022.
The corresponding values for SSDRSAAEKRNT [TYR1 C-terminal 12 aa] are 0.699 ± 0.029 and 0.673 ± 0.039.
As to SSEEGYYIAGSI [IRC23 C-terminal 12 aa], the protein stability index runs as follows: under setting [1], 0.8201 ± 0.0072; (genetic background: wild type) 0.81 ± 0.01.
The corresponding values for SSGCRRLMVGYN [ERC1 C-terminal 12 aa] are 0.6979 ± 0.0017 and 0.684 ± 0.0074.
As for SSKKNNKFRRIR [CST9 C-terminal 12 aa], the protein stability index runs as follows: under setting [1], 0.685 ± 0.019; (genetic background: wild type) 0.714 ± 0.032.
